Measurements reported in patent US20210206856A1 (PANDION OPERATIONS, published 2021).
Numbering of substitutions follows the chain as printed.

T1: human MAdCAM expressed on cells (human, UniProt Q13477 19-382)
T1 construct: whole, on cells; also called MADCAM1
T1 sequence (looked up): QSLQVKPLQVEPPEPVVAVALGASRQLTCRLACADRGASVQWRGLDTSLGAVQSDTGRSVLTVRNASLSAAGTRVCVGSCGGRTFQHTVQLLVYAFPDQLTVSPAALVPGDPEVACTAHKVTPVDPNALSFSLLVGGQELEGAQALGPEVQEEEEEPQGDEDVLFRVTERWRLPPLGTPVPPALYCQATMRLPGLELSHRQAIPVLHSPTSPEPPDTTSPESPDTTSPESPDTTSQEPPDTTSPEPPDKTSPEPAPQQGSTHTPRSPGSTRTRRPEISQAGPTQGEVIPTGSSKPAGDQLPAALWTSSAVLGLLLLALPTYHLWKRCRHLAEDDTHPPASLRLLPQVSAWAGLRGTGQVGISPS

T2: mouse MAdCAM expressed on cells (mouse, UniProt Q61826 22-405)
T2 construct: whole, on cells
T2 sequence (looked up): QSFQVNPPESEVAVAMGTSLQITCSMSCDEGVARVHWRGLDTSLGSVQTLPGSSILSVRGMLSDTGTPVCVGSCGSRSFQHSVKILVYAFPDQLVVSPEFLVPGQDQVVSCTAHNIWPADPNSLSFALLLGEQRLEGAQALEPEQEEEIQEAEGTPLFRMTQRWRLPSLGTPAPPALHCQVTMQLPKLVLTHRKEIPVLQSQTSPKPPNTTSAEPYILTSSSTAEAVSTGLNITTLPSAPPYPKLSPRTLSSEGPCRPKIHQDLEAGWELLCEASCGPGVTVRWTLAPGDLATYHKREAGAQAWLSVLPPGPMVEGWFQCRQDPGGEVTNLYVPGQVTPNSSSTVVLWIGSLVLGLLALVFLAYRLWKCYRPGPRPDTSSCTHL

B1: MAdCAM Antibody Table 1 Clone 45 (scFv)
scFv: EVQLLESGGGLVQPGGSLRLSCAASGFSVSSNYMSWVRQAPGKGLEWVAGISYDGSSKPYADSVKGRFTISRDNSKNTLYLQMNSLRAEDTAVYYCARSRGIAARPLQHWGQGTLVTVSSGGGGSGGGGSGGGGSGGGGSDIVMTQSPDSLAVSLGERATINCKSSQSVLYSSNNKNYLAWYQQKPGQPPKLLIYWASTRQSGVPDRFSGSGSGTDFTLTISSLQAEDVAVYYCHQYYGHPPTFGGGTKVEIK
B2: MAdCAM Antibody Table 1 Clone 46 (scFv)
scFv: B1 scFv with W196Q
B3: MAdCAM Antibody Table 1 Clone 39 (scFv)
scFv: QVQLVQSGAEVKKPGASVKVSCKASGYTFTSYYMHWVRQAPGQGLEWMGWMNPNSGNTGYAQKFQGRVTMTRDTSTSTVYMELSSLRSEDTAVYYCARDLGYYDSSGYFGAFDIWGQGTTVTVSSGGGGSGGGGSGGGGSGGGGSDIQMTQSPSSLSASVGDRVTITCQSSEDISSSLNWYQQKPGKAPKLLIYAASSLQIGVPSRFSGSGSGTDFTLTISSLQPEDFATYYCQQTYSTPYTFGQGTKVEIK
B4: MAdCAM Antibody Table 1 Clone 38 (scFv)
scFv: EVQLLESGGGLVQPGGSLRLSCAASGFTFGSYSMSWVRQAPGKGLEWVSAIGTGGGTYYADSVKGRFTISRDNSKNTLYLQMNSLRAEDTAVYYCAKGTPYYYYYGMDVWGQGTMVTVSSGGGGSGGGGSGGGGSGGGGSDIQMTQSPSSLSASVGDRVTITCRASQPLSNWLAWYQQKPGKAPKLLIYAASSLQSGVPSRFSGSGSGTDFTLTISSLQPEDFATYYCQQAISFPLTFGGGTKVEIK
B5: MAdCAM Antibody Table 1 Clone 33 (scFv)
scFv: QVQLVQSGAEVKKPGASVKVSCKASGYTFTSYGISWVRQAPGQGLEWMGWMHPKSGDTGLTQKFQGRVTMTRDTSTSTVYMELSSLRSEDTAVYYCARDTPYYYYGMDVWGQGTTVTVSSGGGGSGGGGSGGGGSGGGGSDIQMTQSPSSLSASVGDRVTITCRASQSISSWLAWYQQKPGKAPKLLIYAASSLQSGVPSRFSGSGSGTDFTLTISSLQPEDFATYYCQQSYSVPITFGQGTKVEIK
B6: MAdCAM Antibody Table 1 Clone 44 (scFv)
scFv: EVQLVESGGGLVKPGGSLRLSCAASGFTFSSYWMSWVRQAPGKGLEWVSAIGTGGGTYYAAPVKGRFTISRDDSKNTLYLQMNSLKTEDTAVYYCAREWLVPYYGMDVWGQGTTVTVSSGGGGSGGGGSGGGGSGGGGSDIQMTQSPSSLSASVGDRVTITCRASQSISRWLAWYQQKPGKAPKLLIYGASNLQSGVPSRFSGSGSGTDFTLTISSLQPEDFATYYCQQSYSTPWTFGQGTKVEIK
B7: MAdCAM Antibody Table 1 Clone 40 (scFv)
scFv: QVQLVQSGAEVKKPGASVKVSCKASGYTFTSYGISWVRQAPGQGLEWMGIINPRGGSTIFAQKFQGRVTMTRDTSTSTVYMELSSLRSEDTAVYYCARGTRSSGWYGWFDPWGQGTLVTVSSGGGGSGGGGSGGGGSGGGGSDIQMTQSPSSLSASVGDRVTITCRASQGIGNWLAWYQQKPGKAPKLLIYAASNLETGVPSRFSGSGSGTDFTLTISSLQPEDFATYYCQQIHSYPLTFGGGTKVEIK
B8: MAdCAM Antibody Table 1 Clone 50 (scFv)
scFv: QVQLVQSGAEVKKPGASVKVSCKASGYTFTSYDINWVRQAPGQGLEWMGWINPNSGTTGYAQKFQGRVTMTRDTSTSTVYMELSSLRSEDTAVYYCARSPYYYYGMDVWGQGTTVTVSSGGGGSGGGGSGGGGSGGGGSDIQMTQSPSSLSASVGDRVTITCRASHFISRWVAWYQQKPGKAPKLLIYAASTLQSGVPSRFSGSGSGTDFTLTISSLQPEDFATYYCQQSYSGISFGPGTKVDIK
B9: MAdCAM Antibody Table 1 Clone 43 (scFv)
scFv: EVQLLESGGGLVQPGGSLRLSCAASGFTFDDFAMHWVRQAPGKGLEWVSGISGNGDSRYYADSVKGRFTISRDNSKNTLYLQMNSLRAEDTAVYYCARDASYGGNYGMDVWGQGTTVTVSSGGGGSGGGGSGGGGSGGGGSDIQMTQSPSSLSASVGDRVTITCQASQDIRNYLNWYQQKPGKAPKLLIYKASTLESGVPSRFSGSGSGTDFTLTISSLQPEDFATYYCQQANSFPLTFGPGTKVDIK
B10: MAdCAM Antibody Table 1 Clone 56 (scFv)
scFv: EVQLLESGGGLVQPGGSLRLSCAASGFTFDDYAMHWVRQAPGKGLEWVSAISGGGEDTYYADSVKGRFTISRDNSKNTLYLQMNSLRAEDTAVYYCARDASYGGNYGMDVWGQGTTVTVSSGGGGSGGGGSGGGGSGGGGSDIQMTQSPSSLSASVGDRVTITCQASQDIRNYLNWYQQKPGKAPKLLIYKASSLESGVPSRFSGSGSGTDFTLTISSLQPEDFATYYCQQANSYPVTFGGGTKVEIK
B11: MAdCAM Antibody Table 1 Clone 47 (scFv)
scFv: EVQLLESGGGLVQPGGSLRLSCAASGFSFSDYGMHWVRQAPGKGLEWVSAISGSGGSTYYADSVKGRFTISRDNSKNTLYLQMNSLRAEDTAVYYCARDGGWQPAAILDYWGQGTLVTVSSGGGGSGGGGSGGGGSGGGGSDIQMTQSPSSLSASVGDRVTITCRASQGISNNLNWYQQKPGKAPKLLIYDASNLETGVPSRFSGSGSGTDFTLTISSLQPEDFATYYCQQSYSTPLTFGGGTKVEIK
B12: MAdCAM Antibody Table 1 Clone 48 (scFv)
scFv: EVQLLESGGGLVQPGGSLRLSCAASGFTFSDHGMHWVRQAPGKGLEWVSVIYGGESTYYADSVKGRFTISRDNSKNTLYLQMNSLRAEDTAVYYCARDPAVAGGGIFDYWGQGTLVTVSSGGGGSGGGGSGGGGSGGGGSDIQMTQSPSSLSASVGDRVTITCRASQGISNYLAWYQQKPGKAPKLLIYDASNLETGVPSRFSGSGSGTDFTLTISSLQPEDFATYYCQQSYSTCYTFGQGTKLEIK
B13: MAdCAM Antibody Table 1 Clone 32 (scFv)
scFv: QVQLVQSGAEVKKPGASVKVSCKASGYTLTDYYMHWVRQAPGQGLEWMGIINPSGGSTSYAQKFQGRVTMTRDTSTSTVYMELSSLRSEDTAVYYCAREEYSSSSGYFDYWGQGTLVTVSSGGGGSGGGGSGGGGSGGGGSDIQMTQSPSSLSASVGDRVTITCRASQGISSWLAWYQQKPGKAPKLLIYAASSLQSGVPSRFSGSGSGTDFTLTISSLQPEDFATYYCQQSYSTPLTFGQGTKVEIK
B14: MAdCAM Antibody Table 1 Clone 35 (scFv)
scFv: EVQLLESGGGLVQPGGSLRLSCAASGFSFSSYTMNWVRQAPGKGLEWVSFITSSSRTIYYADSVKGRFTISRDNSKNTLYLQMNSLRAEDTAVYYCARDRRGDYGDSWYFDLWGRGTLVTVSSGGGGSGGGGSGGGGSGGGGSEIVMTQSPATLSVSPGERATLSCRASQSVRNYLAWYQQKPGQAPRLLIYGASTRATGIPARFSGSGSGTEFTLTISSLQSEDFAVYYCQQYGSSPLTFGGGTKVEIK
B15: MAdCAM Antibody Table 1 Clone 42 (scFv)
scFv: QVQLVQSGAEVKKPGSSVKVSCKASGGTLSRYGVSWVRQAPGQGLEWMGGIIPIFGTTNYAQKFQGRVTITADESTSTAYMELSSLRSEDTAVYYCARDRVYYDSSGYPTWYFDLWGRGTLVTVSSGGGGSGGGGSGGGGSGGGGSEIVMTQSPATLSVSPGERATLSCRASQSVSSSYLAWYQQKPGQAPRLLIYGASTRATGIPARFSGSGSGTEFTLTISSLQSEDFAVYYCQQYGSSPITFGQGTKVEIK
B16: MAdCAM Antibody Table 1 Clone 49 (scFv)
scFv: QVQLVQSGAEVKKPGASVKVSCKASGDTFTGYYIHWVRQAPGQGLEWMGWINPNSGGTNYAQKFQGRVTMTRDTSTSTVYMELSSLRSEDTAVYYCARSGLWLGSYYGMDVWGQGTLVTVSSGGGGSGGGGSGGGGSGGGGSDIQMTQSPSSLSASVGDRVTITCRASQTISIWLAWYQQKPGKAPKLLIYDASTLQSGVPSRFSGSGSGTDFTLTISSLQPEDFATYYCQQYSSYPLTFGQGTKVEIK
B17: MAdCAM Antibody Table 1 Clone 37 (scFv)
scFv: QVQLVQSGAEVKKPGASVKVSCKASGYTFSKHFVHWVRQAPGQGLEWMGWMNPNSGNSGYAQKFQGRVTMTRDTSTSTVYMELSSLRSEDTAVYYCARGEGGYYYYGMDVWGQGTLVTVSSGGGGSGGGGSGGGGSGGGGSDIQMTQSPSSLSASVGDRVTITCRASQSISSWLAWYQQKPGKAPKLLIYAASTLQSGVPSRFSGSGSGTDFTLTISSLQPEDFATYYCQQSYSTPWTFGQGTKVEIK

Target: T1, human MAdCAM expressed on cells
Assay: cell binding

Row | binding result | Binder
1 | binds | B1
2 | binds | B2
3 | binds | B3
4 | binds | B4
5 | binds | B5
6 | binds | B6
7 | binds | B7
8 | binds | B8
9 | binds | B9
10 | binds | B10
11 | binds | B11
12 | binds | B12
13 | binds | B13
14 | binds | B14
15 | binds | B15
16 | binds | B16
17 | binds | B17

Target: T2, mouse MAdCAM expressed on cells
Assay: cell binding

Row | binding result | Binder
18 | no binding | B1
19 | no binding | B2
20 | no binding | B3
21 | no binding | B4
22 | no binding | B5
23 | no binding | B6
24 | no binding | B7
25 | no binding | B8
26 | no binding | B9
27 | no binding | B10
28 | no binding | B11
29 | no binding | B12
30 | no binding | B13
31 | no binding | B14
32 | no binding | B15
33 | no binding | B16
34 | no binding | B17
